The results in this text go back to US20140005125A1 (Molecular Partners, published 2014).

The chains are these.
B1: DARPin #24 (designed binder)
chain: MRGSHHHHHHGSDLGKKLLEAARAGQDDEVRELLKAGADVNAKDEEGTTPLHYAAVWGHLEIVEVLLKAGADVNAQDIYGATPADLAALVGHEDIAEVLQKLN
B2: DARPin #28 (designed binder)
chain: B1 chain with E32I, L34M, K35A, A36N
B3: DARPin #30 (designed binder)
chain: B1 chain with W57Y
B4: DARPin #49 (designed binder)
chain: MRGSHHHHHHGSDLGKKLLEAARAGQDDEVRILMANGADVNAQDLNGQTPLHLAADIGHLEIVEVLLKHGADVNAQDYAGSTPLRLAAWAGHLEIVEVLLKNGADVNANDYFGYTPLHLAAYFGHLEIVDVLLKHGADVNAQDKFGKTAFDISIDNGNEDLAEILQKLN
B5: DARPin #59 (designed binder)
chain: B4 chain with D27G, R31H, D130E
B6: DARPin #50 (designed binder)
chain: MRGSHHHHHHGSDLGKKLLEAARAGQDDEVRELLKAGADVNAKDLNGQTPLHLAADIGHLEIVEVLLKAGADVNAKDYAGSTPLRLAAWAGHLEIVEVLLKAGADVNAKDYFGYTPLHLAAYFGHLEIVEVLLKAGADVNAQDKFGKTAFDISIDNGNEDLAEILQKLN

Substitutions are numbered along the chain they refer to.

T1 sequence (P01127 82-190 limits assumed): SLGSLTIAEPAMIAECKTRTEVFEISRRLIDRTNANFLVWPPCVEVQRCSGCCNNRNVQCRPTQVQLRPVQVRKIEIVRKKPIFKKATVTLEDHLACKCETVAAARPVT
T2 sequence (P31240 82-190 limits assumed): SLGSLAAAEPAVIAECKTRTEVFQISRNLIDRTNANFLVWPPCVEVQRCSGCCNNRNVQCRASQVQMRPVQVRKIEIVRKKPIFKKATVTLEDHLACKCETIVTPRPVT

One assay has as its target T1, Recombinant human PDGF-BB (human, UniProt P01127 82-190). In words: cell-based or functional assay.
With B1, the “IC50 of inhibition of NIH-3T3 cell proliferation (WST-1)” value (from here on “IC50 of inhibition … (WST-1)”) is 1.4 nM.

For the molecule B2, the “IC50 of inhibition … (WST-1)” value stood at 1.6 nM.

As to B3, the “IC50 of inhibition … (WST-1)” value came out at 3.2 nM.

With B4, the “IC50 of inhibition … (WST-1)” value turned out to be 1.9 nM.

With B5, the “IC50 of inhibition … (WST-1)” value was 2 nM.

The next assay has as its target T1, Recombinant human PDGF-BB. In words: receptor competition ELISA: DARPin preincubated with PDGF-BB, free PDGF-BB captured on coated PDGFRbeta/Fc; mean IC50. As to the method: (§1) The potency of PEGylated anti-PDGF-BB DARPins to inhibit the binding of human PDGF-BB to its receptor PDGFRbeta was determined in a in a receptor competition ELISA (based on PDGF-BB Quantikine, R&D Systems). PDGFRbeta/Fc chimera has been precoated on a microplate. The DARPins were preincubated in assay diluent from the PDGF-BB Quantikine kit (R&D Systems) with a defined amount of PDGF-BB and incubated at room temperature for 2 hours with shaking at 750 rpm. These preincubation mixtures were then transferred into the precoated wells and any PDGF-BB that is not blocked by the DARPins was bound by the immobilized receptor. After washing away any unbound substances, a horse radish peroxidase-linked polyclonal antibody specific for PDGF-BB was added to the wells. Following a wash to remove any unbound antibody-enzyme reagent, a substrate solution was added to the wells and color was developing in proportion to the amount of PDGF-BB bound. The color development was stopped and the intensity of the color was measured at […]. Example titration curves are given for a set of DARPins in FIG. 2. IC₅₀ values were calculated from such titration curves obtained as described above using Graph Pad Prism software and standard procedures known to the person skilled in the art.
For the molecule B1, the IC50 (in general, the concentration needed to halve the response being measured) is 0.015 nM.

Turning to B2, the concentration for half-maximal inhibition (IC50) came to 0.016 nM.

With B3, the IC50 stood at 0.49 nM.

Turning to B4, the IC50 is 0.066 nM.

On to B6, for which the IC50 was determined as 0.032 nM.

For another assay, the target named is T1, Recombinant human PDGF-BB. In words: SPR (ProteOn), biotinylated PDGF-BB on neutravidin chip, DARPin injected; Kd from on- and off-rates. As to the method:
(§2) Biotinylated PDGF-BB molecules from human and mouse were immobilized in a flow cell through binding to coated […] and the interaction with various selected DARPins was analyzed.
(§3) SPR was measured using a ProteOn instrument (BioRad) and measurement was performed according standard procedures known to the person skilled in the art. The running buffer was PBS, pH 7.4, containing 0.005% Tween 20®. Neutravidin was covalently immobilized on a GLC chip (BioRad) to a level of about 8000 resonance units (RU). Immobilization of PDGF-BB on the neutravidin coated chip was then performed. The interaction of DARPin PDGF-BB was then measured by injecting 100 μl running buffer (PBS containing 0.005% Tween®) containing serial dilutions of DARPins of concentration of […] (on-rate measurement), followed by a running buffer flow for between 10 minutes and up to 3 hours at a constant flow rate of 30 μl/min (off-rate measurement). The signals (i.e. resonance unit (RU) values) of an uncoated reference cell and a reference injection (i.e. injection of running buffer only) were subtracted from the RU traces obtained after injection of […] (double-referencing). From the SRP traces obtained from the on-rate and off-rate measurements the on- and off-rate of the corresponding DARPin PDGF-BB interaction can be determined.
(§4) Dissociation constants (Kd) were calculated from the estimated on- and off-rates using standard procedures known to the person skilled in the art.
As for B1, the Kd (commonly a measure of binding affinity in units of concentration) is 0.0301 nM.

In the case of B2, the Kd is 0.0171 nM.

As for B3, the Kd came to 0.11 nM.

B4: the Kd is 0.0769 nM.

Turning to B5, the Kd worked out at 0.171 nM.

Consider B6, for which the Kd worked out at 0.115 nM.

Another assay addresses T2, Recombinant murine PDGF-BB (mouse, UniProt P31240 82-190, limits assumed).
T2 construct: For SPR chemically biotinylated on primary amines and captured on neutravidin; also called mouse PDGF-BB; PDGF-BB (mouse)
The description is as above. As to the method: as §2, §3, §4
For the molecule B4, the dissociation constant Kd was 0.102 nM.

The target of a further assay is T1, Recombinant human PDGF-BB. In words: receptor competition ELISA (PDGFRbeta), distinct single experiment of FIG. 2. As for the experimental part:
The inhibition of the binding of PDGF-BB to PDGFRbeta by various concentrations of DARPins with specificity for PDGF-BB and the corresponding fitted inhibition curves are shown for a distinct single experiment. The IC₅₀ values were then calculated to be about 20 and 18 pM for the DARPins #50 (D1) and #28 (D2), respectively. OD, optical density at 450 nm; C, concentration of DARPins in pM. The X axis is shown in logarithmic scale. See below for the definitions of DARPin #50 and 28.
as §1, with “After washing away any unbound substances, a horse radish peroxidase-linked polyclonal antibody specific for PDGF-BB was added to the wells. Following a wash to remove any unbound antibody-enzyme reagent, a substrate solution was added to the wells and color was developing in proportion to the amount of PDGF-BB bound.” left out, “Example titration curves are given for a set of DARPins in FIG. 2.” left out
For orientation: An ELISA detects its analyte on a solid surface through an enzyme-linked reagent.
On to B2, for which the IC50 is roughly 0.018 nM.

B6: the IC50 was roughly 0.02 nM.
